Target: His6-SUMO-NOT7 (human) (UniProt Q9UIV1)
Assay: mass photometry

Chain of His6-SUMO-NOT7 (human) (Q9UIV1 whole entry): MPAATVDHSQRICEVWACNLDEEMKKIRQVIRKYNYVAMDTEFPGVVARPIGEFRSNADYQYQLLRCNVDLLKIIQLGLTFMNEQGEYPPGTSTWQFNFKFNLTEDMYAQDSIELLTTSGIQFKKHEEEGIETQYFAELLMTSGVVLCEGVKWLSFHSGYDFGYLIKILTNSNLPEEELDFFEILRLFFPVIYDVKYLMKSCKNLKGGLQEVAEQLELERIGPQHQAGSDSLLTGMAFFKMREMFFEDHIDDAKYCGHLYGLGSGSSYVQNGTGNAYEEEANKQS

His6-PieF (from UniProt A0AAN5PHN6) (natural protein)
stoichiometry N: 1
